{"source": "paper PMC6815954", "about": "“Rational design of caspase-responsive smart molecular probe for positron emission tomography imaging of drug-induced apoptosis” (Theranostics, 2019)", "substrate": "CC(=O)N[C@@H](CC(=O)O)C(=O)N[C@@H](CCC(=O)O)C(=O)N[C@H](C(=O)N[C@@H](CC(=O)O)C(=O)N[C@@H](CSSC(C)(C)C)C(=O)N[C@@H](Cc1cn(CC[N+](C)(C)C[B-](F)(F)F)nn1)C(=O)Nc1ccc2nc(C#N)sc2c1)C(C)C", "test": "Enzyme kinetics study of cleavage of 1", "format": "biochemical, human", "details": "other: 1 at 0.1-2 mM, caspase-3 0.4 μg/1 mL, assay buffer pH 7.4, 37 °C, 1 h, HPLC", "protocol": "Figure S17. (A) HPLC traces of probe 1 incubated with the cell lysates of apoptotic HeLa cells for 8 h.\nBottom: probe 1 alone; Top: reduced product (*) and cyclized product (#). (B) The content of 1-dimer after incubation with the cell lysates of apoptotic HeLa cells at different time.\nFor the enzyme-controlled cleavage kinetics studies, the probe 1 at different concentrations (0.1, 0.25, 0.5, 1, and 2 mM) was incubated with the caspase-3 (0.4 μg/1 mL) assay buffer (pH = 7.4) containing 50 mM HEPES, 100 mM NaCl, 1 mM EDTA, 1 mM DTT, 10% glycerol, and 0.1% CHAPS at 37 °C for 1 h, respectively. Then the caspase-3-cleaved intermediates were characterized by HPLC, and the kinetic parameters were determined according to the method reported previously. 4,5\nFigure S18. Kinetic studies for the cleavage of probe 1 towards caspase-3.\nBiocompatibility of 1 and 1-NPs\nOne cancer cell line (HeLa) and three normal cell lines (GES-1, LO2 and HEK293) were cultured in DMEM supplemented with 10% fetal bovine serum (FBS, Gibco). The cells were grown in tissue culture dishes and kept in a humidified atmosphere of 5% CO 2 at 37 °C. The […]\n(1 picture or pasted object on this page, not shown here)", "data": [{"protein": "caspase-3 (Homo sapiens) (protein) chain 1: SGISLDNSYKMDYPEMGLCIIINNKNFHKSTGMTSRSGTDVDAANLRETFRNLKYEVRNKNDLTREEIVELMRDVSKEDHSKRSSFVCVLLSHGEEGIIFGTNGPVDLKKITNFFRGDRCRSLTGKPKLFIIQACRGTELDCGIETD chain 2: SGVDDDMACHKIPVEADFLYAYSTAPGYYSWRNSKDGSWFIQSLCAMLKQYADKLEFMHILTRVNRKVATEFESFSFDATFHAKKQIPCIVSMLTKELYFYH", "values": [{"measurement": "Km", "result": 330.43, "unit": "µM"}, {"measurement": "kcat", "result": 6.22, "unit": "s⁻¹"}, {"measurement": "kcat/Km", "result": 17617.56, "unit": "M⁻¹ s⁻¹"}]}]}
